Test results reported in FireProtDB (doi:10.1021/bi982931h).

Conditions: Geobacillus stearothermophilus, 25 °C, Urea, CD, Sodium phosphate 10 mM, reversible: yes, whole UniProt chain shown

B1: Large ribosomal subunit protein bL9 wild type, P02417 (protein)
chain: MKVIFLKDVKGKGKKGEIKNVADGYANNFLFKQGLAIEATPANLKALEAQKQKEQRQAAEELANAKKLKEQLEKLTVTIPAKAGEGGRLFGSITSKQIAESLQAQHGLKLDKRKIELADAIRALGYTNVPVKLHPEVTATLKVHVTEQK
unfolding free energy (pH 2.4, NaCl 750 mM): 2.9 kcal/mol
unfolding free energy (pH 2.79, NaCl 100 mM): 2.3 kcal/mol
unfolding free energy (pH 3.15, NaCl 750 mM): 3.1 kcal/mol
unfolding free energy (pH 3.55, NaCl 100 mM): 3 kcal/mol
unfolding free energy (pH 4.14, NaCl 750 mM): 4 kcal/mol
unfolding free energy (pH 4.51, NaCl 100 mM): 3.5 kcal/mol
unfolding free energy (pH 5.25, NaCl 750 mM): 4.8 kcal/mol
unfolding free energy (pH 5.99, NaCl 100 mM): 4.4 kcal/mol
unfolding free energy (pH 6.56, NaCl 750 mM): 4.7 kcal/mol
unfolding free energy (pH 6.98, NaCl 100 mM): 4.5 kcal/mol
unfolding free energy (pH 7.26, NaCl 750 mM): 5.2 kcal/mol
